Assay: label from the status in PepcDB records

## MLTDRELLILEEIVREYTENGQPIGSKTLMNNLPVKVSSATIRNDMAKLEEMGLIEKMHSSSGRIPSLMGYRYYVDHLLSPKKLNQSEAQQIQKGLGMHFREVDDIVRTSAEMLSNLTHYTALTLKPDQKDATLDGFRMVPLGGNQVMLILVSSNGDVTSQQFSIPRGMNSETVERVLRIMNDRLIGETLDQVYYHLKTDIPKIVEHYLHSNDGIIDIFENVVAQSSQDRYFIGGKLNILNFSKNVDVSSIRGLLTLFNENDQLDGLLGNNQSDLDVKIGDELSNALLKDFSLITATYDVGSRGKGLIAILGPTSMQYSKTLGLLDTFRDQLSNRMLEYYKHLDDS
  protein production: failed

## MLTENYNKQAIAQAFGRAAGCYDRFAELQRTSGERLLALMPAHSGLQVLDAGCGTGHFSRYWRQAGRNVTALDLSAEMLAYAREQHAADRYLEGDIENLPLADSCVDICYSNLAVQWCDSLPRALGELYRITRPGGVIAFATLADGSLSELSQAWQRLDGTQRTNRFLPHSVIDAACQPYRHHLLQEREVCLFPDVLALMKSLKGIGATWLHEGRTPGLLSRARLAALSACYPQEQGGYPLSYQLVYGVIYRDLEHHHHHH
  protein production: failed

## MLTGIGAIVFDLDGTLYQSESLGGQIAACADRYLADLLSVSPEEAGEIVRRVRRELTARFGREASLSDACRELGGDLRELHRRFAAEVAPEPHLRRDSRVVQLLRTLGANRELYLYTNNNRALSGRIMDAIGVTGLFRRVVTIEDSWRPKPDLQALEALFAALGRKPSECLFVGDRYDIDLRLPAELGCSVYLSRTVDELLGLTLPLSEEQQ
  protein production: failed

## MLTIREIQSLVHKGEPGQWSHTKALYFFIAPSGRPFWAIRYMLKGRRRQMSLTDSIPATVRELKQIELLSETEREKVRKGIDPLAEREAAKAASPEPVRQLVTFKSVALDYIAANRGGWKNAKHVQQWENTLATYVYPVIGHLEPQSITTAEVLKILQPLWATKRETASRVRSRVETIIGAAKAKGMSEKPEIWANHHNPARWADNLEFWLNGKQEKNHFSAMPYPEIPAFAQSIAEREDYSTKALQFLILTATRTNETLGAEWSEIDTEKAVWTIPASRMKSGKEHRVPLSSEALKLVASLLRIEGNPYLFPGAIRNKSLSNMALLMVMRGLKLGHYVPHGFRSAFRDWAAEETVYPNHIVEMALAHTIKNKVEAAYRRGDLMEKRRQLMEDWSAYLASAR
  protein production: failed

## MLTKFKSLPKAVYAILALSFLLHVFCLVKQPGLDGELVKVTYGANDAFNYSLTAEQLLKHGVFGYVYLEPSEVPGKNAYITPGQPLLLAGAMIISDITSIPYYYVATVINMIMNLCTVLLVFLIGKELFEKNIYGIVASILYAIYPSNYTYFRTLLTEVPSIFLLALCVYVFVLAWKYNKVKFHIWFGIVVSILLMFRPNPAPMMLIPVLVVLFTYGFKDSIRIGLLWFIGPFFIIGAWVVRNYLALNQFILFSTQGADPLIAGADPFNKIGYENIVNEMRAKGLDDKGAYAKELIKNGFKTDFTYWFSWFTVGKTIELFKTAPAVDQYRIHNFMQLCHRVFIIGTFLSSFCFMLNSFKHKRVMMLVASSIIYIIFSNLFLAINRYGFFINPLMCLILAYGLIHIVQKLPFFRTNQA
  protein production: failed

## MLTNPTYGLTLHAQGPVPAEVFPLPTPPRSSRVPASTNRGGPPPQRGGPRPSGRPPRPPVRRKKPRWAMRAVTALSVVVLASAGIGHAVLSSLDSDISRFDAFKDMKNRPRAGDGMNVLMVGTDGRDEITEEERRKYRLGGAPCHCTDTIMIVHISEDRERASVVSLPRDSYAETPGHTDRTTGEHHKGHPIKLNAAYAEGGPQLTIRTVENMTRVKIDHYLEVDFTSFMKTVDVLGGVRICTVQPLKDSYTGLDLPAGSHTLMGGQALQYVRARHLDGASDLSRMKRQQRFLAALIDRATSSGILLNPLKFRDVTRAVLGSVRADQGFGTDELLTLGRAMRNFSPSSSEFTTVPIGQMGYAVKGVGSTLKWDPAKSERLFDALREDEPLAAPKPKGPAPVRVPVDPKQIRVQVENGTRTSGLGKRVDDALAATGFRTTRAPRNAEDRAVGRTVVAYDPRWDQSAKSLAAALPGSELKPVKGQGATLKVIAGADFEKVAKVRPADPPQESGTVVRGDEVVCGKE
  protein production: failed

## MLTNSINYSELSDVAAFVCVVQTGSFTAAAEQLNTSKSVISKYITRLEKRLGVKLLARTTRRLTLTEIGRTFYEGSRQGLEAIDNAEEAVSFLQGKPRGTLKINAPLSFGALHIAPALEEFIHRYPEMQIDLRFDDKKIDMIKDGFDLTVRITHQLEGNLIARRIAPCHHALVAAPNYLAKRGTPKRPEDLVAHNVITYQYQQSPWEWEFTAAKSKPKRVRVNGSVQMNNSLAIREAVLAGVGISRMPTFAVGEDIKSGRLIQLLPKYSLLEHSIYLVFPERNHMAPKTRAFIDYMVKIMEGKPSWDRF
  protein production: failed

## MLTNVVAVLLDGVHPFELGVVCEVFGIDRSDEGLPVYEFAVASAEGPTLRTHAGFSLRTEHGLERLETADLITLPAGNSYVSRGYPPELLDALRRAVDRGARLLSVCSGVFVLGAAGLLDGRRCAVHWHHADELARQYPKAIVEPDVLYVDEDPVITSAGTAAGIDACLHIVRKEQGPEVANAIARRMVVPPHRDGGQAQYIERPLPRSPCDTVGEVLVWMEQHLDEEVTVEQLAARAHMSPRTFARRFQQETGTTPYRWILRQRVLLAQRLLEVTDETMDAIAGRTGFGTAAALRHQFVRSLGTTPNAYRRTFRGPATGPLGLAG
  protein production: failed

## MLTPRFDIQPAVSVILPTFDRAPLLASAIESVVAQNFAEWELIVVDDGSSDETFEIVDGYLNQHANIRYMKHRNRKAALSRNAGIQAAFGRYITFLDSDDLYLPEHLESRLHLLESMPEVRLISGGFVCEGDPWVRDRDDPEKLIHVSECIAGATMFGRRELFLDIGGFRALDYAEDTDLWERAARSHKVLKIDQPVSYIYRRSPGSITRTYKPAKPLEHHHHHH
  protein production: not failed

## MLTQANIPSWYEGLNKSGLTPPGPVFSIVWSILYALLAIVGWVLWCSRNESEMRSVFYLYSVQMLMNWAWTPLFFVLHWTGLSFLWILVMAGLTGLLMFSQTNKKKSLAILLLPYLIWLLFAAYLNGVIWLLN
  protein production: failed

## MLTQFLNLLATIISVISLLIVTYGALIAIISFIINELKRVTGAYTPTNIRKLRAVFGTYLLLGLEFLIASDILKTVLEPTMNELIILGGIVVVRTILSVFLNKEIKELETENN
  protein production: failed

## MLTQTLDSPSGAKRLRVMSRHEREPVSQSKTDFSQQTRWMLAVRDNRDRLAFAALFDHFAPRLKGFVIRSGTPAHQAEEIVQDVMLTIWRKAAMFDPHRAQVSAWIYQIARNRQIDIARKENRPMPEELKEEPGTEPDASQILGLEQEAGQLKQALANLKPEQREIIEKAYLGELTHQEISAQTGLPLGTIKSRIRLGLERLRYELKDLKQ
  protein production: failed

## MLTRAIKTQLVLLTVLAVIAVVVLGWYFLRIPSLVGIGRYTLYAELPRSGGLYRTANVTYRGITIGKVTGVEPTERGARATMSIDNGYQIPTDASANVHSVSAVGEQFVDLVSTRTSGPYLRHGQTITTTTVPSQIGPALDAANRGLAVLPKDRVASVLHEASEAVGGLGSSLNRLIEATQAIAHDVRGSLEDIDDIIERSAPIIDSQVNSGNEIARWAANLNTLAAQTAQTDPAVRSILANAAPTADQVNATFSDVRESLPQTLANLEVVIDMLKRYHNGVEQALVFLPQSGAIAQSVTTEFPGQAGLGVGGLALNQPPPCLTGFLPASEWRSPADTSTAPLPKGTYCRIPMDASNVVRGARNNPCVDVPGKRAATPRECRSNEAYVPGGTNPWYGDPNQMLSCPAPAARCDQPVKPGQVIPAPSVNNGINPLPADQLPGTPPPVNDPLQRPGSGTVQCNGQQPNPCVYTPSTFPTTIYDVQSGKVVAPDGVVYSVEASTHAGADGWKVMLAPTG
  protein production: failed

## MLTTLAIGNYRSINHLVLPLSQLNLVTGANGSGKSNLYKALRLLAETAQGGVVEALAREGGLDSTWWAGPETSARMRRGEVPIQGQHPSEVRRLRLGFATEDLGFAITLGLPIPLPYPSAFMLDPEIKCEAIWGAGAYRPSSLLVERKNALVRAREGNRWAVLDQHADSGESFFNIVGRPRQAPEIGDLRAFINSWRFYDHFRIDRDAPCRQPQLGTRSPVLHHDGRNLASALQTIIEIGDVEDLEEALNDAFPGSRLEINAPPGGLFSVRLHQHGLLRPLEGAELSDGTLRYLLLMAALLTPRPPSLMVLNEPETSLHADLLPALARLIIRASRRSQVWVVSHSAPLINALAACDGCNVLELEKIQGQTQLRGVGLLDEPLWRWAD
  protein production: failed
